Experimental data reported in the supplement of paper PMC12764529.
± gives the half width of the 95% confidence interval.

Experiments:
[1] = folding stability dG unfold from trypsin proteolysis; higher = more stable
Method in brief: (§1)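 Sequencing followed digestion of designed mini-proteins with trypsin and chymotrypsin, each at 11 concentrations in threefold dilutions together with a no-protease condition. The mini-proteins were under 80 residues, had no cysteine, sat in a PA-tagged cDNA display construct, and were kept only if AlphaFold2 dimer inter-PAE was above 15. From the counts, Bayesian fitting gave K50, and unfolding free energy was derived against a sequence-predicted unfolded-state K50 and a shared folded-state K50, per protease or combined.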

[2] = folding stability dG unfold from chymotrypsin proteolysis; higher = more stable
Method in brief: as §1

[3] = folding stability dG unfold (combined trypsin and chymotrypsin); higher = more stable
Method in brief: as §1

Row | Sequence | folding stability dG unfold [1] [kcal/mol] | folding stability dG unfold [2] [kcal/mol] | folding stability dG unfold [3] [kcal/mol]
1 | SAGGSVIVKLPNGKILEVSPSELAGYKPGAAVKFPDGTAQVVNPETDEVIDIPIDSPEKIIEAIKKAASAGG [r13_962_TrMRF] | 0.0192 ± 0.1 | 0.365 ± 0.077 | 0.163 ± 0.24
2 | SAGGSVVPLPLDETVELTFDGTTATFTALPDGTATATFTGPDSTARATFPPDGAVTVTVPGAGTTAASAGGS [r16_725_JUSTAS] | -1.18 ± 0.62 | -0.268 ± 0.19 | -0.404 ± 0.19
3 | SAGGSVVTIVEVVPEDKKIVIKAPGNPITIPLENIKEIKLIPEKGYLEITINNTTIKVPLNNPNSISAGGSA [r2_48_JUSTAS] | 0.308 ± 0.051 | 1.09 ± 0.058 | 0.779 ± 0.071
4 | SAGGSWLPPGMWIISISIKWEMREMTFSPNGQPEMEMRLEIDIQVIKIPPPPPPPKEDAKNPNGKWSAGGSA [r2_495_TrROS] | 0.946 ± 0.15 | 2.22 ± 0.3 | 1.66 ± 0.35
5 | SAGGSYTVEELPPGGILRITFTVPKSRPAEVPLELKAPDGTPVDVESYSITPVGDTNVITYTIKVPLSAGGS [r16_499_JUSTAS] | 1.57 ± 0.049 | 1.81 ± 0.15 | 1.85 ± 0.11
6 | SAGGTATLVIPRIYKGSPEEAARAVQEIADALAALGYDVEVDATVYPVGDYLVVTVTVTVTAPPDSPLASAG [r5_217_TrMRF] | 2.62 ± 0.099 | 2.82 ± 0.046 | 2.63 ± 0.15
7 | SAGGTIIINFTWSDIKDILDYLKDNKDWKITIWMGNKPVEYPLDDLEEILQNIPMPPGQPFWIEITPSAGGS [r16_377_TrROS] | 3.38 ± 0.26 | 4.32 ± 0.14 | 4.36 ± 0.17
8 | SAGGTLEEFARDLAKELAKENGGKNVPFEIEIPVKMEWYPSPDGDPEPIMTHPMRIRIQFQIPPGQPSAGGS [r16_156_TrROS] | 0.389 ± 0.11 | 1.53 ± 0.14 | 1.08 ± 0.15
9 | SAGGTLRNMPVEQIAKRLQNHGYEIKVENIRHNEDRVRIKIEVERRNKNGKPHEEVKISIEIPDPDDFSAGG [r13_566_TrROS] | 0.461 ± 0.23 | 0.403 ± 0.15 | 0.559 ± 0.27
10 | SAGGTLTLLVEVDGLLVRVTAEVRLVYDPETDELTLEVRVRVEVRPLPAPPPPLVVVRDADGRLRLLSAGGS [r8_46_TrROS_Hall] | 1.03 ± 0.095 | 2.71 ± 0.042 | 2.22 ± 0.08
11 | SAGGTMTIEAWVKYKDMTPEEMREQAKEIAENIMNMMRQRGFPIKKIEVDVEQDPGNGWVQVTIEIEFSAGG [r13_212_TrROS] | 3.45 ± 0.15 | 4.62 ± 0.13 | 4.24 ± 0.18
12 | SAGGTPVVVPATITVPVPFGAPARVTIFTPEDGHVLALIELPDGAVLVATFDPTTGELHVAPYADAASAGGS [r16_735_TrMRF] | 1.19 ± 0.061 | 2.78 ± 0.06 | 2.23 ± 0.14
13 | SAGGTVTIFIPGMSLDQIKKFIKFFRDNPDRPVTIHMPNGYMIEIDPKGKIDNIKVRRMPPMPEDDQSAGGS [r16_248_TrROS] | 1.52 ± 0.036 | 2.93 ± 0.046 | 2.53 ± 0.12
14 | SAGGVEEAREALEEAGFEIVDVDEETGTVTVRNEETEETITVRVEAPAPPPVEVEEEVEVEEEEEEESAGGS [r16_197_TrROS_Hall] | 1.14 ± 0.089 | 1.48 ± 0.12 | 1.34 ± 0.096
15 | SAGGVEEIVEKLPEEAEEVEITSEPHPLPGSTLTKYTIKAKNSATGKTKTYEVTVLYDPEGNVLEVLLSAGG [r13_358_JUSTAS] | 1.7 ± 0.061 | 2.74 ± 0.082 | 2.22 ± 0.19
16 | SAGGVITIRIPGIDNRNPETMRSKAVEIADRLRDHGVTVTDVEWDPDQGSMTITVMLPGQSLEDILKSAGGS [r8_344_TrROS] | 1.89 ± 0.062 | 2.69 ± 0.051 | 2.42 ± 0.084
17 | SAGGVLLEFPDGTTVEITVTTSTSTFKDPTTDKTVTKSSTTITVTRKTPDPVVTPVPASEAQRIFDSTSAGG [r13_809_JUSTAS] | 2.13 ± 0.079 | 2.96 ± 0.2 | 2.47 ± 0.21
18 | SAGGVLTRVEIEIVEPGTGVPKRFEALLETGDDGTITLLLPDGTVIELPPTANIKILSEEVLSPSELSAGGS [r16_223_JUSTAS] | 2.02 ± 0.1 | 0.0233 ± 0.17 | 1.37 ± 0.21

Row | Sequence | folding stability dG unfold [1] [kcal/mol] | folding stability dG unfold [2] [kcal/mol] | folding stability dG unfold [3] [kcal/mol]
19 | SAGGVPLLSAELLTTDETGNRTYRLVYYDPSTGKVYEVVVSQPFPTGDFNPFLFTASSLEEALELVTSSAGG [r13_26_TrMRF] | 2.61 ± 0.057 | 2.81 ± 0.038 | 2.7 ± 0.038
20 | SAGGWEIVGSITIEHPNRPIIFPVFRDPEEGNVWVSIYRMDPENGKWQPIGVVPFPKGDAEDALDDISAGGS [r8_423_TrROS] | 1.03 ± 0.054 | 1.86 ± 0.11 | 1.53 ± 0.16
21 | SAGGWITPELIEEIAKTIAEENPENGKEVPIEVVIPFPNSVIKIEIEFDPSNGKIEIEDIKVIPPNDLSAGG [r13_37_TrROS] | 0.67 ± 0.12 | 1.5 ± 0.12 | 1.16 ± 0.28
22 | SAGGWIWIPPDDPEDAKEWARELVLMFANHMKEQGQEDMTVDVDIHVWDPKDGNWYRIPVEFRVKPDSAGGS [r8_163_TrROS] | 1.97 ± 0.044 | 2.31 ± 0.12 | 2.19 ± 0.13
23 | SAGGWRYILRQIREAAKNGEEVTINFPPGMNPSFLLSWIRKENGAEVKPITVKPNPNGYGTINIKVKSAGGS [r16_318_TrROS] | 1.39 ± 0.054 | 2.02 ± 0.057 | 1.8 ± 0.073
24 | SAGGWTIREILEKNPNLREFAKEGWTIEIYYPNGKSGRVKIKEGSADDILDDINKNFPGPVEISITKSAGGS [r16_655_TrROS] | 0.659 ± 0.072 | 0.437 ± 0.23 | 0.573 ± 0.14
25 | SAGGYELELVFRFKLELKVGDGTLSFDLDLVIRIPLEPPAVPIGVEVKEDGSLVLTYPNGLKAEIPLSAGGS [r16_136_TrMRF] | 3.32 ± 0.14 | 4.21 ± 0.06 | 3.93 ± 0.087
26 | SAGGYVTSPMSPEIEAKAKEAGKTIDEAKELVIPVNDGGKFRTVKVTFYPETGTVAFYYEDTGEWSNLLSAG [r5_545_JUSTAS] | 0.499 ± 0.12 | 1.05 ± 0.19 | 0.957 ± 0.22
27 | SAGHPWMFRAKVEYDDGKPVGEREINIPGMPIDDIASDLFNEPGLRKVKIEFYWMDGEPQEIEIPVKPSAGG [r19_269_TrROS] | 0.801 ± 0.097 | 0.457 ± 0.28 | 0.689 ± 0.21
28 | SAGIKEIAKKLGFPIHSVKPTEPDPENGKLKWTVIFRNEKNNYYVIEIDLDDPEKIEIERFPPGEEIPSAGG [r19_72_TrROS] | 1.21 ± 0.13 | 1.61 ± 0.12 | 1.39 ± 0.21
29 | SAGIKIKDISRDPNGYVEVTIVYPPGKSIKEIIELIRKLFGFKIEKVEIYPSPNGVYITYRFRIPEGAISAG [r5_774_TrROS] | 3.15 ± 0.11 | 4.47 ± 0.058 | 4.13 ± 0.12
30 | SAGIKPGEKIEKVEIVKVEVKKNKDGSKTVTVTIKLKDGKTITIKPGETIEIKIENKKEGEKITLKVKSAGG [r19_199_TrROS_Hall] | 1.45 ± 0.13 | 1.91 ± 0.13 | 1.74 ± 0.16
31 | SAGIPYRVLELEIPGVGVRVEVRLAPDGRIVEVRVTVVPVPPVPPALPLRPELLVPDEDGRWYSPEELLSAG [r5_685_TrMRF] | 2.68 ± 0.059 | 2.26 ± 0.028 | 2.44 ± 0.11
32 | SAGITIRLPGAEIEVQRYPHPGNGMPMYRVTVELENPEGKKPKVDVIFPPNQPPGQVENVARYIAKELKSAG [r5_704_TrROS] | 0.858 ± 0.13 | -0.302 ± 0.28 | 0.472 ± 0.16
33 | SAGIYIPMDMTIDELVDILQKFGIRSVTTERMPEPGMYKATLKFPDLTIEIWYHPNWMHIEIVPPGEPISAG [r5_899_TrROS] | 2.77 ± 0.12 | 4.18 ± 0.07 | 3.85 ± 0.23
34 | SAGKETIKIKLFDKNGKLIAEIEIEKLPDGTYKIKIKNKKTGKELEIEVKIEDGKIYIKLPNGAILEIESAG [r5_809_TrROS_Hall] | 3.51 ± 0.19 | 5.13 ± 0.2 | 5.04 ± 0.2
35 | SAGKEVIVITVEELEKLLKALKPGEKVKIVVINKDGKKVTFTAEVKDGKVEIKEAEKDIKPGDKIFIEKSAG [r5_85_TrROS_Hall] | 1.85 ± 0.17 | 3.49 ± 0.28 | 3.09 ± 0.46
36 | SAGKFKITNISPMEERKPEDDKWEEQPYIMIRMRWKDPQKALDEIKEEFGYPVNIQRDPDDGWATIMIPSAG [r5_907_TrROS] | 0.137 ± 0.2 | 0.231 ± 0.18 | 0.248 ± 0.11
